{"source": "paper PMC3936760", "about": "(Nucleic Acids Research, 2013)", "binders": {"B1": {"name": "GST-tagged human PABP-interacting protein 2 (Paip2) (natural protein, UniProt Q9BPZ3 1-127, looked up)", "chain": "MKDPSRSSTSPSIINEDVIINGHSHEDDNPFAEYMWMENEEEFNRQIEEELWEEEFIERCFQEMLEEEEEHEWFIPARDLPQTMDQIQDQFNDLVISDGSSLEDLVVKSNLNPNAKEFVPGVKYGNI"}}, "molecular_target": "full-length human poly(A)-binding protein (PABP, PABPC1) (human, UniProt P11940 1-636)", "sequence (P11940 whole entry)": "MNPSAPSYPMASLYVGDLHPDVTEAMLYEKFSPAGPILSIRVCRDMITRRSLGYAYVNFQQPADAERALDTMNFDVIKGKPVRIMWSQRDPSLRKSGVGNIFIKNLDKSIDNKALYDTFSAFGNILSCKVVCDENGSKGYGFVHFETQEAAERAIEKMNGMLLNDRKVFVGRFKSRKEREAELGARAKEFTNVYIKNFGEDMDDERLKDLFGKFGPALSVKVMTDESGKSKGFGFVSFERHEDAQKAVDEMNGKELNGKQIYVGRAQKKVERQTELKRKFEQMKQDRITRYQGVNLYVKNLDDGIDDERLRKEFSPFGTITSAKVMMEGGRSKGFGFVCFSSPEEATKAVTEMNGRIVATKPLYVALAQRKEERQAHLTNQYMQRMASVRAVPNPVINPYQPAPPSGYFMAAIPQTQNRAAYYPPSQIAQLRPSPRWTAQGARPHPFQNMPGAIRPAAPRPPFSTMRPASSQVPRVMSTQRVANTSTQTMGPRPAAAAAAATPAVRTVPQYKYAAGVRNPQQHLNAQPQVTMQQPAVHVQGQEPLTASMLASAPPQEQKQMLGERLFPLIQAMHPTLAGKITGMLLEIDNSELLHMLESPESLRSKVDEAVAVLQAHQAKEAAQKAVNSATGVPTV", "assay": "FRET or BRET", "data": [{"binder": "B1", "values": [{"measurement": "kon", "value": 153000, "unit": "M⁻¹ s⁻¹"}]}]}
